From paper PMC5592240, “Succinyl-CoA:Mesaconate CoA-Transferase and Mesaconyl-CoA Hydratase, Enzymes of the Methylaspartate Cycle in Haloarcula hispanica” (Frontiers in Microbiology, 2017)

Key:
[1] = molecular target: the molecule itself; assay: SEC; analytical gel filtration, 24-ml Superdex 200 Increase 10/300 GL, 50 mM Tris/HCl pH 8.0 with 2 M KCl, 0.75 ml/min; calibrated with alcohol dehydrogenase (150 kDa), bovine serum albumin (66 kDa), carbonic anhydrase (29 kDa), cytochrome c (12.4 kDa); native mass against the monomer's mass
[2] = substrate: CC(CC(=O)O)C(=O)O; assay: UPLC of CoA-ester formation; format: biochemical, Haloarcula hispanica; settings: CoA acceptor, 1 mM succinyl-CoA, 100 mM Tris/HCl pH 7.8, 3 M KCl, 5 mM MgCl2, 37°C, apparent
From the text: (§1) UPLC of CoA-ester formation on succinyl-CoA:mesaconate CoA-transferase (Mct, Hah_1336)

[3] = substrate: O=C(O)CCCC(=O)O; assay: UPLC of CoA-ester formation; format: biochemical, Haloarcula hispanica; settings: CoA acceptor, 1 mM succinyl-CoA, 100 mM Tris/HCl pH 7.8, 3 M KCl, 5 mM MgCl2, 37°C, apparent
From the text: as §1

[4] = substrate: C=CC(=O)O; assay: UPLC of CoA-ester formation; format: biochemical, Haloarcula hispanica; settings: CoA acceptor, 1 mM succinyl-CoA, 100 mM Tris/HCl pH 7.8, 3 M KCl, 5 mM MgCl2, 37°C, apparent
From the text: as §1

[5] = substrate: CC(C)(COP(=O)(O)OP(=O)(O)OC[C@H]1O[C@@H](n2cnc3c(N)ncnc32)[C@H](O)[C@@H]1OP(=O)(O)O)[C@@H](O)C(=O)NCCC(=O)NCCSC(=O)CCC(=O)O; assay: UPLC of mesaconyl-CoA formation; format: biochemical, Haloarcula hispanica; settings: CoA donor, 10 mM mesaconate, 100 mM Tris/HCl pH 7.8, 3 M KCl, 5 mM MgCl2, 37°C, apparent
From the text: (§2) UPLC of mesaconyl-CoA formation on succinyl-CoA:mesaconate CoA-transferase (Mct, Hah_1336)

[6] = substrate: C/C(=C\C(=O)O)C(=O)O; assay: UPLC of mesaconyl-CoA formation; format: biochemical, Haloarcula hispanica; settings: CoA acceptor, 1 mM succinyl-CoA, 100 mM Tris/HCl pH 7.8, 3 M KCl, 5 mM MgCl2, 37°C, apparent
From the text: as §2

[7] = substrate: C/C(=C\C(=O)SCCNC(=O)CCNC(=O)[C@H](O)C(C)(C)COP(=O)(O)OP(=O)(O)OC[C@H]1O[C@@H](n2cnc3c(N)ncnc32)[C@H](O)[C@@H]1OP(=O)(O)O)C(=O)O; assay: UPLC of CoA esters (hydration to (S)-citramalyl-CoA); format: biochemical, Haloarcula hispanica; settings: 100 mM Tris/HCl pH 7.8, 3 M KCl, 5 mM MgCl2, 37°C, forward direction (hydration), apparent
From the text: UPLC of CoA esters (hydration to (S)-citramalyl-CoA) on mesaconyl-CoA hydratase (Mch, Hah_1340)

[8] = substrate: C[C@H](C(=O)SCCNC(=O)CCNC(=O)[C@H](O)C(C)(C)COP(=O)(O)OP(=O)(O)OC[C@H]1O[C@@H](n2cnc3c(N)ncnc32)[C@H](O)[C@@H]1OP(=O)(O)O)[C@@H](O)C(=O)O; assay: UPLC of CoA esters (dehydration to mesaconyl-C1-CoA); format: biochemical, Haloarcula hispanica; settings: 100 mM Tris/HCl pH 7.8, 3 M KCl, 5 mM MgCl2, 37°C, reverse direction (dehydration), apparent
From the text: UPLC of CoA esters (dehydration to mesaconyl-C1-CoA) on mesaconyl-CoA hydratase (Mch, Hah_1340)

[9] = substrate: C/C(=C\C(=O)O)C(=O)SCCNC(=O)CCNC(=O)[C@H](O)C(C)(C)COP(=O)(O)OP(=O)(O)OC[C@H]1O[C@@H](n2cnc3c(N)ncnc32)[C@H](O)[C@@H]1OP(=O)(O)O; assay: UPLC of CoA esters (hydration to beta-methylmalyl-CoA); format: biochemical, Haloarcula hispanica; settings: 100 mM Tris/HCl pH 7.8, 3 M KCl, 5 mM MgCl2, 37°C, forward direction (hydration), apparent
From the text: UPLC of CoA esters (hydration to beta-methylmalyl-CoA) on mesaconyl-CoA hydratase (Mch, Hah_1340)

[10] = substrate: CC(C)(COP(=O)(O)OP(=O)(O)OC[C@H]1O[C@@H](n2cnc3c(N)ncnc32)[C@H](O)[C@@H]1OP(=O)(O)O)[C@@H](O)C(=O)NCCC(=O)NCCSC(=O)C[C@H](O)C(=O)O; assay: UPLC of CoA esters (dehydration); format: biochemical, Haloarcula hispanica; settings: 100 mM Tris/HCl pH 7.8, 3 M KCl, 5 mM MgCl2, 37°C, apparent
From the text: (§3) UPLC of CoA esters (dehydration) on mesaconyl-CoA hydratase (Mch, Hah_1340)

[11] = substrate: CC(C)(COP(=O)(O)OP(=O)(O)OC[C@H]1O[C@@H](n2cnc3c(N)ncnc32)[C@H](O)[C@@H]1OP(=O)(O)O)[C@@H](O)C(=O)NCCC(=O)NCCSC(=O)C[C@](C)(O)C(=O)O; assay: UPLC of CoA esters (dehydration); format: biochemical, Haloarcula hispanica; settings: 100 mM Tris/HCl pH 7.8, 3 M KCl, 5 mM MgCl2, 37°C, apparent
From the text: as §3

B1: succinyl-CoA:mesaconate CoA-transferase from Haloarcula hispanica (enzyme, UniProt G0HQ31 1-396, looked up)
chain: MGALDDLRVLDLTQVLAGPYCTMLLADMGADVVKVERPGGDLIRSNPPFVSDGDEEAYGGYFQSVNRGKRSLELDLGTDEDREAFLSLVERADVVVENFKAGTMEKFDCGYETLREHNPDLIYSSIRGFGDPRTGETHRQGQPSFDLIAQALGGVMEITGQSDGPPTKVGPGVGDLFTAVLNAVGILAAVHHRERTGEGQYVDTAMYDSMVSLCERTVYQYSCDGESPTRQGNSHPTLFPYDSFEAADGHVVIAAFADGHWETLCEAMERPDLAADYPDAGSRIANRESLRREIADWTATIDSETLLDLLEGRVPAAPVQNTADIFDDPHIHDREMLTDVDQPGADEQITIAGSPIKMTETMPSPGGRAPLLDEHRAELLDEAGVGTGTNRVESDD
notes: succinyl-CoA:mesaconate CoA-transferase (Mct, Hah_1336) of Haloarcula hispanica; the 1.19-kb mct gene (396 amino acids, predicted molecular mass 43 kDa) was cloned into pTA963; No removal of the tag is described; also called Mct; Hah_1336; source: Haloferax volcanii H1209 (pTA963), purified (Ni-NTA, gel filtration); not shown: His6, N-terminal, kept
**Q.** B1 was tested. Which “stoichiometry N” value [1] did it give?
**A.** 2

**Q.** And the Km [2]?
**A.** 600 ± 100 µM

**Q.** And the Vmax [2]?
**A.** 11 µmol/min/mg

**Q.** What about the kcat/Km [2] of the same protein?
**A.** 12400 M⁻¹ s⁻¹

**Q.** And the Km [3]?
**A.** 40900 ± 3900 µM

**Q.** And the Vmax [3]?
**A.** 18.1 µmol/min/mg

**Q.** And the kcat/Km [3]?
**A.** 320 M⁻¹ s⁻¹

**Q.** And the Km [4]?
**A.** 39300 ± 4600 µM

**Q.** What about the Vmax [4] of the same protein?
**A.** 6.2 µmol/min/mg

**Q.** What about the kcat/Km [4] of the same protein?
**A.** 120 M⁻¹ s⁻¹

**Q.** And the Km [5]?
**A.** 2800 ± 200 µM

**Q.** What about the Vmax [5] of the same protein?
**A.** 69.2 µmol/min/mg

**Q.** What about the kcat/Km [5] of the same protein?
**A.** 17800 M⁻¹ s⁻¹

**Q.** And the Km [6]?
**A.** 1300 ± 200 µM

**Q.** What about the Vmax [6] of the same protein?
**A.** 17 µmol/min/mg

**Q.** What about the kcat [6] of the same protein?
**A.** 12.2 s⁻¹

**Q.** And the kcat/Km [6]?
**A.** 9800 M⁻¹ s⁻¹

B2: mesaconyl-CoA hydratase from Haloarcula hispanica (enzyme, UniProt G0HQ35 1-358, looked up)
chain: MTDWTDPDALDLSDGETFDSLLDRADTREKGHFFEFFAEGDELAHDPGLRLSHHGSEQWMGQTLNHDPAYWRADTAQERGFEERPVHPDYLLACVMGITVEDLSEKGGYFLGRDDVEFHQPATAGTPLSVTSTVVDTRTSSSRPKYGIVTWETEGRDRETGETLVSYRRTNMIPRREPAATDGGAVGEQDEGGPAMPDTLLSPDGERFGDFQAALDTAREENAAVAYRHERGRTMDDQLVAGLPLSTLNTARQHHNRDEMADSPSGDIVAYGDVTRSIALAHARSDEATYREQRFADERFHDFVTLGDTVYGFTRVLDCDPDAGPERAGAVTFEHVAFNQEQTPVYSGRRTAHIQRHQ
notes: mesaconyl-CoA hydratase (Mch, Hah_1340) of Haloarcula hispanica; the 1.07-kb mch gene (358 amino acids, predicted molecular mass 40 kDa) was cloned into pTA963; No removal of the tag is described; also called Mch; Hah_1340; source: Haloferax volcanii H1209 (pTA963), purified (Ni-NTA, gel filtration); not shown: His6, N-terminal, kept
**Q.** With B2 as the protein, how does the “stoichiometry N” value [1] read?
**A.** 2

**Q.** What about the Km [7] of the same protein?
**A.** 180 ± 10 µM

**Q.** What about the Vmax [7] of the same protein?
**A.** 1.12 µmol/min/mg

**Q.** What about the kcat/Km [7] of the same protein?
**A.** 2000 M⁻¹ s⁻¹

**Q.** What about the Km [8] of the same protein?
**A.** 350 ± 50 µM

**Q.** What about the Vmax [8] of the same protein?
**A.** 266 µmol/min/mg

**Q.** And the kcat/Km [8]?
**A.** 254000 M⁻¹ s⁻¹

**Q.** And the Km [9]?
**A.** 1000 ± 100 µM

**Q.** What about the Vmax [9] of the same protein?
**A.** 20.7 µmol/min/mg

**Q.** What about the kcat/Km [9] of the same protein?
**A.** 6900 M⁻¹ s⁻¹

**Q.** And the Km [10]?
**A.** 320 ± 50 µM

**Q.** What about the Vmax [10] of the same protein?
**A.** 3.6 µmol/min/mg

**Q.** What about the kcat/Km [10] of the same protein?
**A.** 3800 M⁻¹ s⁻¹

**Q.** What about the Km [11] of the same protein?
**A.** 2600 ± 300 µM

**Q.** What about the Vmax [11] of the same protein?
**A.** 1.6 µmol/min/mg

**Q.** What about the kcat/Km [11] of the same protein?
**A.** 200 M⁻¹ s⁻¹
